# Values of other authors as cited in paper PMC3277744.
# Target: Bcl-XL (Homo sapiens) (UniProt Q07817)
# Sequence (Q07817 whole entry): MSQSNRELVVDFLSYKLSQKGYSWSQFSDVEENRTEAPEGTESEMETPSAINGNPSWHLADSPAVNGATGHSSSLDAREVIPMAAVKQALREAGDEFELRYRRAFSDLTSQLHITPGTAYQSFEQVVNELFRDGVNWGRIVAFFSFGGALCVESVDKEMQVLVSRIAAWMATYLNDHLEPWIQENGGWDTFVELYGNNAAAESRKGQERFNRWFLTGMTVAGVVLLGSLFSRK
substance,measurement,value
p53 (from UniProt P04637),Kd,0.164 µM
